Measurements from US8304565B2, “PEG-lipid conjugates for liposomes and drug delivery” (priority 2008, dated 2012).

Experiments:
human red blood cells = test: Hemolysis of human red blood cells; assay type: cell-based; settings: equivalent concentrations (20 mmol), absorbance at 413 nm
Procedure: In addition, hemolysis of human red blood cells was performed to provide a more quantitative cytotoxicity evaluation of the PEG-grafted lipids. Cell lysis caused by cytotoxic material leads to release of heme into solution, which was detected by absorbance at 413 nm and compared to control experiments performed in the absence of the synthetic material. Results in Table 6 for equivalent concentrations (20 mmol) of sodium lauryl sulfate (SLS) and mPEG-600 were shown for the comparison.

[1] = In vitro stability of selective linkers at low pH; assay type: physicochemical; settings: 10 mM phosphate buffer (pH 2.1), approximately 0.05 g/mL, 37°, GPC with RI detector
Procedure: Three DAG-PEGs with equivalent PEG chains and fatty acids, but different linkages (shown in Table 5) were tested for stability at low pH, in the range of 1.4 to 2.1. Table 5 includes alternate names for each of the three DAG-PEGs tested.
The selected DAG-PEGs were mixed with 10 mM phosphate buffer (pH 2.1) at final concentrations approximately 0.05 g/mL and incubated at 37° . The sample solutions were tested on a GPC column with RI detector and the breakdown fragments were further confirmed by LC-MS/MS.
In FIG. 1, (1) is PEG (n=12)-3-acetyl-1,2-rac-dioleoylglucerol, (2) is PEG (n=12)-3-acetamido-dioleoylglycerol and (3) is PEG (n=12)-3-N-(mercaptomethyl)-Propionamido-1,2-rac-dioleoylglucerol.

[2] = Spontaneous liposome formation of DAG-PEG lipids; assay type: physicochemical
From the text: Herein, we describe biologically degradable linear PEG analogs carrying diacylglycerol lipid groups. These new molecules belong to a class referred to as diacylglycerol-polyethyleneglycols (DAG-PEGs). DAG-PEGs having certain properties form liposomes spontaneously upon mixing with an aqueous solution. Briefly, DAG-PEGs or lipid mixtures including DAG-PEGs must have packing parameters that allow liposome formation. Generally, Pa is preferably between about 0.84 and 0.88, and Pv is preferably between about 0.88 and 0.93. Also, the DAG-PEGs or lipid mixtures including DAG-PEGs must have a melting point below the temperature of liposome formation. If a DAG-PEG meets these conditions, it will form liposomes spontaneously (without external energy inputs). Spontaneous liposomes and DAG-PEGs are described in U.S. Pat. No. […], which is hereby incorporated by reference. The particular DAG-PEGs described in U.S. Pat. No. […] utilized a single oxy (alternatively called oxyl) linkage between the PEG and the glycerol backbone.
A number of new DAG-PEGs were synthesized and tested. Most of the combinations of PEG chains and fatty acids were chosen because it was known or expected that such DAG-PEGs with oxy linkages would have packing parameters and melting points favorable for the formation of liposomes.

[3] = mouse, in vivo, iv, 10 mg/kg
Procedure: Groups of three male mice (B6D2F1) were used for the studies. Pharmacokinetics (PK) were performed on heparinized mouse plasma samples obtained typically at 0 hr, 0.08 hr, 0.25 hr, 0.5 hr, 1 hr, 2 hr, 4 hr, 8 hr, 16 hr and 24 hr after the bolus IV injection or oral feeding for posaconazole and at 0 hr, 0.08 hr, 0.25 hr, 0.5 hr, 1 hr, 2 hr, 4 hr, 8 hr, 16 hr and 24 hr for itraconazole. Samples were analyzed using a HPLC-MS method. To determine the level of each drug, the drug was first isolated from plasma with a sample pre-treatment. Acetonitrile were used to remove proteins in samples. An isocratic HPLC-MS method was then used to separate the drugs from any potential interference. Drug levels were measured by MS detection with a multiple reaction monitoring (MRM) mode. PK data was analyzed using the WinNonlin program (ver. 5.2, Pharsight) compartmental models of analysis.
The drug was administered intravenously and the dosing strength was 10 mg/kg.

With `CCCCCCCCCCCCOS(=O)(=O)[O-].[Na+]` [SLS, sodium lauryl sulfate] the “% Hemolysis” value (human red blood cells) was 80%.
With “PEG (n=12)-3-N-(mercaptomethyl)-Propionamido-1,2-rac dioleoylglycerol [PEG-12-S2-GDO]” the “stability at low pH” value [1] was “degraded quickly”.
With “PEG (n=12)-3-acetamido-dioleoylglycerol [PEG-12-N3-GDO]” the “stability at low pH” value [1] was “relatively stable”.
In the case of “PEG (n=12)-3-acetyl-1,2-rac-dioleoylglycerol [PEG-12-Ac2-GDO]”, the “Spontaneous Liposome at 20° C.” value ([2]; 20° C.) was “Yes”, the “Spontaneous Liposome at 37° C.” value ([2]; 37° C.) was “Yes” and the “stability at low pH” value [1] was “stable”.
POPC gave an AUC [3] of 164.1 µg·h/mL.
